Measured values taken from paper PMC9065009, “Mechanistic insights of ABC importer HutCD involved in heme internalization by Vibrio cholerae” (Scientific Reports, 2022).

Experiments:
[1] = target: HutD; experiment: cross-linking
[2] = target: HutD; experiment: SEC; Superdex 200 Increase 10/300 GL; 250 uM HutD preincubated 1.5 h at 4 °C with 500 uM AMP.PNP; 500 ul injected; 50 mM Tris-HCl pH 8.0, 300 mM NaCl, 5 mM MgCl2; 0.5 ml/min; calibrated with molecular weight standards
[3] = target: T1, HutD (Vibrio cholerae, UniProt Q9KL34); experiment: biochemical
T1 construct: gene hmuV
T1 sequence (Q9KL34 whole entry, looked up): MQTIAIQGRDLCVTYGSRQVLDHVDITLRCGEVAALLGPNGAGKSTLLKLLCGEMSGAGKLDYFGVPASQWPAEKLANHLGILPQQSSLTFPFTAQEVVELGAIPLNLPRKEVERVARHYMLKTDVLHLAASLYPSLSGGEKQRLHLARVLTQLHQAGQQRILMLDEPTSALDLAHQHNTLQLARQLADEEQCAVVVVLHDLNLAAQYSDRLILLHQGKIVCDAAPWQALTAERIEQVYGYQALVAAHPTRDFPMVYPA

HutD (enzyme), sequence (O52047 whole entry): as the sequence (Q9KL34 whole entry, looked up) above

Molecule | stoichiometry N [1] | stoichiometry N [2] | Kd [3]
HutD (enzyme) | 2 | 2 | 
Nc1ncnc2c1ncn2[C@@H]1O[C@H](COP(=O)(O)OP(=O)(O)NP(=O)(O)O)[C@@H](O)[C@H]1O [AMP.PNP] |  |  | 94 ± 0.024 µM
